Measurements published in PMC3954597 (Biochemistry, 2014).
Changes are numbered by the printed parent chain. Square brackets hold non-standard residues; d marks the D form. pY = N[C@@H](Cc1ccc(OP(=O)(O)O)cc1)C(=O)O

T1: R24M PTP1B catalytic domain (amino acids 1-321) (human) (UniProt P18031)
T1 sequence: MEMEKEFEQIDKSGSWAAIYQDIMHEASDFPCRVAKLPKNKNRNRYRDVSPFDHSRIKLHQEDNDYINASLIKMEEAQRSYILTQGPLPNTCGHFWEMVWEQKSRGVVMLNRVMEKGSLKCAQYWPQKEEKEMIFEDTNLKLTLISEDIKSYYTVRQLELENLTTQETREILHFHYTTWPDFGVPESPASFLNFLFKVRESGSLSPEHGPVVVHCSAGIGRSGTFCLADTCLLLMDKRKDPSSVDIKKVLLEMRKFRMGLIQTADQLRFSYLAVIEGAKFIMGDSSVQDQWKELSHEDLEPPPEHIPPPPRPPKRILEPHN

T2: R47E PTP1B catalytic domain (amino acids 1-321) (human) (UniProt P18031)
T2 sequence: T1 sequence with M24R, R47E

T3: wild-type PTP1B catalytic domain (amino acids 1-321) (human) (UniProt P18031)
T3 sequence: T1 sequence with M24R

B1: Ac-AApYAAADD-NH2 (peptide)
peptide: Ac-AA[pY]AAADD-NH2
SMILES: CC(=O)N[C@@H](C)C(=O)N[C@@H](C)C(=O)N[C@@H](Cc1ccc(OP(=O)(O)O)cc1)C(=O)N[C@@H](C)C(=O)N[C@@H](C)C(=O)N[C@@H](C)C(=O)N[C@@H](CC(=O)O)C(=O)N[C@@H](CC(=O)O)C(N)=O
B2: Ac-AApYAADDA-NH2 (peptide)
peptide: Ac-AA[pY]AADDA-NH2
SMILES: CC(=O)N[C@@H](C)C(=O)N[C@@H](C)C(=O)N[C@@H](Cc1ccc(OP(=O)(O)O)cc1)C(=O)N[C@@H](C)C(=O)N[C@@H](C)C(=O)N[C@@H](CC(=O)O)C(=O)N[C@@H](CC(=O)O)C(=O)N[C@@H](C)C(N)=O
B3: Ac-AApYDDIDE-NH2 (peptide)
peptide: Ac-AA[pY]DDIDE-NH2
SMILES: CC[C@H](C)[C@H](NC(=O)[C@H](CC(=O)O)NC(=O)[C@H](CC(=O)O)NC(=O)[C@H](Cc1ccc(OP(=O)(O)O)cc1)NC(=O)[C@H](C)NC(=O)[C@H](C)NC(C)=O)C(=O)N[C@@H](CC(=O)O)C(=O)N[C@@H](CCC(=O)O)C(N)=O
B4: Ac-EEDNAWpYAA-NH2 (peptide)
peptide: Ac-EEDNAW[pY]AA-NH2
SMILES: CC(=O)N[C@@H](CCC(=O)O)C(=O)N[C@@H](CCC(=O)O)C(=O)N[C@@H](CC(=O)O)C(=O)N[C@@H](CC(N)=O)C(=O)N[C@@H](C)C(=O)N[C@@H](Cc1c[nH]c2ccccc12)C(=O)N[C@@H](Cc1ccc(OP(=O)(O)O)cc1)C(=O)N[C@@H](C)C(=O)N[C@@H](C)C(N)=O
B5: Ac-AApYADDAA-NH2 (peptide)
peptide: Ac-AA[pY]ADDAA-NH2
SMILES: CC(=O)N[C@@H](C)C(=O)N[C@@H](C)C(=O)N[C@@H](Cc1ccc(OP(=O)(O)O)cc1)C(=O)N[C@@H](C)C(=O)N[C@@H](CC(=O)O)C(=O)N[C@@H](CC(=O)O)C(=O)N[C@@H](C)C(=O)N[C@@H](C)C(N)=O
B6: nephrin pY1217 peptide Ac-DPRGIpYDQVAG-NH2 (peptide)
peptide: Ac-DPRGI[pY]DQVAG-NH2
SMILES: CC[C@H](C)[C@H](NC(=O)CNC(=O)[C@H](CCCNC(=N)N)NC(=O)[C@@H]1CCCN1C(=O)[C@H](CC(=O)O)NC(C)=O)C(=O)N[C@@H](Cc1ccc(OP(=O)(O)O)cc1)C(=O)N[C@@H](CC(=O)O)C(=O)N[C@@H](CCC(N)=O)C(=O)N[C@H](C(=O)N[C@@H](C)C(=O)NCC(N)=O)C(C)C

Target: T1, R24M PTP1B catalytic domain (amino acids 1-321) (human)

Binder	KM, steady-state dephosphorylation of the pY peptide [µM]
B1	8.7
B2	6.9
B3	37
B4	1.9
B5	6.4
B6	71

Target: T2, R47E PTP1B catalytic domain (amino acids 1-321) (human)

Binder	KM, steady-state dephosphorylation of the pY peptide [µM]
B1	10
B2	11
B3	56
B4	9.5
B5	12
B6	23

Target: T3, wild-type PTP1B catalytic domain (amino acids 1-321) (human)

Binder	KM, steady-state dephosphorylation of the pY peptide [µM]
B1	3
B2	2.6
B3	3.5
B4	1.3
B5	2.2
B6	7.1
